Series [1] in a line: in vivo. Set-up: species or system BALB/c nu/nu mice. The settings on record: female, BALB/c nu/nu, mouse, total radioactivity. The procedure:
(§1) For biodistribution studies, 16 female BALB/c nu/nu mice (age 15–16 weeks) bearing PC-3 xenografts (inoculated subcutaneously with 8 × 10^6 PC-3 cells three weeks before the experiment) were randomized into groups of four. The mice were intravenously injected into the tail vein with a mixture of [^64Cu]Cu-X-RM26 and [^57Co]Co-X-RM26 and were euthanized at 3 and 24 h p.i. Injected activity was adjusted to 300 kBq/mouse for ^64Cu- and 40 kBq/mouse for ^57Co-labeled conjugates. The total injected peptide mass was adjusted to 45 pmol/mouse (in 100 μL). Blood, kidney, pancreas, liver, lung, bone, muscle, tumor, spleen, stomach, small intestines, and the rest of the GI tract with content were collected, weighed, and their activity content was measured in a gamma-counter. The ^64Cu activities were determined from measurements performed on the day of the experiment, while the ^57Co activities were measured after two weeks to allow the ^64Cu to decay. Tissue uptake of the radiopeptides was calculated as a percent of injected dose per gram tissue (%ID/g), with exception of the GI tract for which tissue uptake was calculated as %ID per whole sample.

Series [2] has as its system PC-3 xenografts. Kind of series: in vivo. On the set-up: species or system BALB/c nu/nu mice. As to conditions: mouse; for Blood uptake / Liver uptake / Pancreas uptake / Small int. uptake / Stomach uptake / Tumor uptake / GI tract uptake / Bone uptake / Kidney uptake / Lung uptake / Spleen uptake: female, BALB/c nu/nu; for GI tract uptake: iv, 45 pmol/mouse. The procedure:
as §1

As a reminder, the tissue uptake is the share of the injected amount in each gram of the tissue.

On to `CC(C)C[C@H](NC(=O)C[C@H](O)[C@H](CC(C)C)NC(=O)[C@H](Cc1c[nH]cn1)NC(=O)CNC(=O)[C@@H](NC(=O)[C@H](C)NC(=O)[C@H](Cc1c[nH]c2ccccc12)NC(=O)[C@H](CCC(N)=O)NC(=O)[C@@H](Cc1ccccc1)NC(=O)COCCOCCNC(=O)CN1CCN(CC(=O)O)CCN(CC(=O)O)CC1)C(C)C)C(N)=O` [[^64Cu]Cu-NOTA-PEG2-RM26, metal not drawn], for which, in series [1] (Bone uptake), the tissue uptake at 24 h turned out to be 0.15 %ID/g. Moreover, in series [1] (Kidney uptake), the tissue uptake at 3 h turned out to be 0.46 %ID/g and the tissue uptake at 24 h turned out to be 0.25 %ID/g. The tissue uptake at 3 h in series [1] (Muscle uptake) was 0.02 %ID/g. Besides, the tissue uptake at 24 h in series [1] (Small int. uptake) was 0.12 %ID/g. The tissue uptake at 3 h in series [1] (Spleen uptake) was found to be 0.1 %ID/g. Further, the tissue uptake at 24 h in series [1] (Stomach uptake) was 0.14 %ID/g. In series [1] (Tumor uptake), the tissue uptake at 3 h is 3.94 %ID/g. For the same molecule, in series [2] (3 h), the Blood uptake is on record as 0.06 %ID/g, the Liver uptake is recorded as 0.59 %ID/g, the Pancreas uptake is on record as 1.31 %ID/g and the Small int. uptake is listed as 0.72 %ID/g. In series [2] (3 h), this molecule had a Stomach uptake of 1.19 %ID/g and a GI tract uptake of 0.76 %ID. In series [2] (24 h), this molecule showed a Blood uptake of 0.04 %ID/g, a Liver uptake of 0.49 %ID/g, a Tumor uptake of 0.42 %ID/g and a GI tract uptake of 0.07 %ID.
In series [2] (3 h), `CC(C)C[C@H](NC(=O)C[C@H](O)[C@H](CC(C)C)NC(=O)[C@H](Cc1c[nH]cn1)NC(=O)CNC(=O)[C@@H](NC(=O)[C@H](C)NC(=O)[C@H](Cc1c[nH]c2ccccc12)NC(=O)[C@H](CCC(N)=O)NC(=O)[C@@H](Cc1ccccc1)NC(=O)COCCOCCNC(=O)CCC(C(=O)O)N1CCN(CC(=O)O)CCN(CC(=O)O)CC1)C(C)C)C(N)=O` (stereo partly drawn) [[^64Cu]Cu-NODAGA-PEG2-RM26, metal not drawn] showed a Bone uptake of 0.08 %ID/g, a Kidney uptake of 0.90 %ID/g, a Liver uptake of 0.28 %ID/g and a Lung uptake of 0.12 %ID/g. In series [2] (3 h), this molecule had a Pancreas uptake of 0.27 %ID/g, a Small int. uptake of 0.24 %ID/g, a Spleen uptake of 0.05 %ID/g and a Stomach uptake of 0.27 %ID/g. For the same molecule, in series [2] (3 h), the Tumor uptake worked out at 2.31 %ID/g and the GI tract uptake turned out to be 1.02 %ID. In series [2] (24 h), this molecule displayed a Blood uptake of 0.02 %ID/g, a Bone uptake of 0.13 %ID/g, a Kidney uptake of 0.12 %ID/g and a Liver uptake of 0.16 %ID/g. In series [2] (24 h), this molecule had a Lung uptake of 0.04 %ID/g, a Pancreas uptake of 0.04 %ID/g, a Small int. uptake of 0.05 %ID/g and a Spleen uptake of 0.02 %ID/g. In series [2] (24 h), the Stomach uptake came out at 0.08 %ID/g, the Tumor uptake turned out to be 0.16 %ID/g, the GI tract uptake was 0.03 %ID and the Muscle uptake is 0.00 %ID/g.
Consider `CC(C)C[C@H](NC(=O)C[C@H](O)[C@H](CC(C)C)NC(=O)[C@H](Cc1c[nH]cn1)NC(=O)CNC(=O)[C@@H](NC(=O)[C@H](C)NC(=O)[C@H](Cc1c[nH]c2ccccc12)NC(=O)[C@H](CCC(N)=O)NC(=O)[C@@H](Cc1ccccc1)NC(=O)COCCOCCNC(=O)CN1CCN(CC(=O)O)CCN(CC(=O)O)CC1)C(C)C)C(N)=O` [[^57Co]Co-NOTA-PEG2-RM26], for which, in series [1] (Bone uptake), the tissue uptake at 3 h turned out to be 0.11 %ID/g. Moreover, the tissue uptake at 24 h in series [1] (Muscle uptake) was determined as 0.01 %ID/g. The tissue uptake at 24 h in series [1] (Spleen uptake) was 0.04 %ID/g. Besides, in series [1] (Tumor uptake), the tissue uptake at 24 h is 0.31 %ID/g. In series [2] (3 h), this molecule gave a Blood uptake of 0.02 %ID/g, a Kidney uptake of 0.51 %ID/g, a Liver uptake of 0.06 %ID/g and a Small int. uptake of 0.34 %ID/g. Further, in series [2] (3 h), the Stomach uptake is listed as 0.59 %ID/g, the Tumor uptake came to 3.27 %ID/g and the GI tract uptake came to 0.26 %ID. In series [2] (24 h), this molecule gave a Lung uptake of 0.02 %ID/g, a Pancreas uptake of 0.02 %ID/g and a GI tract uptake of 0.02 %ID.

(Values after publication PMC7766840, “Preclinical Evaluation of the Copper-64 Labeled GRPR-Antagonist RM26 in Comparison with the Cobalt-55 Labeled Counterpart for PET-Imaging of Prostate Cancer” (Molecules, 2020).)
